Data set [1] is described as follows: folding stability dG unfold from trypsin proteolysis; higher = more stable. In outline: (§1)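 Designed mini-proteins (under 80 residues, no cysteine) in a PA-tagged cDNA display construct were digested with trypsin and chymotrypsin. Each protease was used at 11 concentrations (threefold dilutions) plus a no-protease condition, followed by sequencing. K50 was inferred by Bayesian fitting of sequencing counts, and unfolding free energy was derived against a sequence-predicted unfolded-state K50 and a shared folded-state K50, per protease or combined. Only designs with AlphaFold2 dimer inter-PAE above 15 were kept.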

Data set [2] can be described thus: folding stability dG unfold from chymotrypsin proteolysis; higher = more stable. The method, boiled down:
as §1

Data set [3] is described as follows: folding stability dG unfold (combined trypsin and chymotrypsin); higher = more stable. In outline:
as §1

± gives the half width of the 95% confidence interval.

For “SAGGSAEIVIVESPQQVREAAEPENPDGPPVKVIPMTYEEAKNEIRELKKKGKPMKIVIVIDPGTPSAGGSA [r15_567_TrROS]”, the “folding stability dG unfold” value in data set [1] was -0.547 ± 0.41 kcal/mol; in data set [2] it was -0.167 ± 0.24 kcal/mol; in data set [3], -0.429 ± 0.65 kcal/mol.

Regarding “SAGGSAEKPEIGAEIVTYKDKDKPLYIVAVPFFDENGNLVGVLVKEFDNPEEAKEFLEALGFGKIESAGGSA [r15_127_TrMRF]”, the entries for the “folding stability dG unfold” value in data set [1], in data set [2] and in data set [3] were 1.55 ± 0.14 kcal/mol, 1.68 ± 0.038 kcal/mol and 1.56 ± 0.12 kcal/mol, respectively.

Regarding “SAGGSAEKPPYVIRLEITVKGPGKKVKLDILVDSPEELEAVIQALKDLGFTDIEPKIETFPLEELDSAGGSA [r15_1015_TrMRF]”, the entries for the “folding stability dG unfold” value in data set [1], in data set [2] and in data set [3] were 1.63 ± 0.12 kcal/mol, 2.42 ± 0.11 kcal/mol and 2.18 ± 0.17 kcal/mol, respectively.

Turning to “SAGGSAEKPVKIHLMYNPDYYYVRIRNNGGPQSFMFKPDMDIEEIANNFPPGIDEIEIHPMPPEAFSAGGSA [r15_1058_TrROS]”, the “folding stability dG unfold” value was 0.251 ± 0.14 kcal/mol in data set [1], 0.491 ± 0.099 kcal/mol in data set [2] and 0.421 ± 0.1 kcal/mol in data set [3].

As to “SAGGSAENKTIKITFTFKNAKNAIFTINVEKGNKTYKITFNLSDNQELNIEVDYNNTKVSFSIYPASAGGSA [r15_414_TrMRF]”, the “folding stability dG unfold” value in data set [1] is 3.94 ± 0.48 kcal/mol; in data set [2], 5.35 ± 0.21 kcal/mol; in data set [3], 4.74 ± 0.43 kcal/mol.

On to “SAGGSAEPIGTLTLSFPVKVKVKDADGSIHEYDVTITVTPTVYRLPNGDLVVGLDVEIVFPDGSSLPGSAGG [r13_113_TrMRF]”, for which the “folding stability dG unfold” value in data set [1] came out at 3.11 ± 0.1 kcal/mol; in data set [2], 4.42 ± 0.065 kcal/mol; in data set [3] it was 4.16 ± 0.066 kcal/mol.

In the case of “SAGGSAERVLIEAESLEEAKAALEELGVTRVEEREVDGKRYLILVDLDDPEKIEVFSREELEKLLKSAGGSA [r15_11_TrROS_Hall]”, the “folding stability dG unfold” value in data set [1] worked out at 0.935 ± 0.034 kcal/mol; in data set [2], 1.78 ± 0.093 kcal/mol; in data set [3], 1.55 ± 0.083 kcal/mol.

Turning to “SAGGSAETIEIEIKVKTEEEREKLKEALKKIPSIKEVKELPDGTIKITVSKENLDKIKEALKKAGVSAGGSA [r15_834_TrROS_Hall]”, the entries for the “folding stability dG unfold” value in data set [1], in data set [2] and in data set [3] were 3.37 ± 0.34 kcal/mol, 2.25 ± 0.24 kcal/mol and 3.31 ± 0.65 kcal/mol, respectively.

As to “SAGGSAETKTVVIEVKLPEELKGLSAEELAALLAEELAKKPGVKEVTVTVERDEETDTLRVTITYPSAGGSA [r15_1029_TrROS_Hall]”, the “folding stability dG unfold” value in data set [1] stood at 3.21 ± 0.05 kcal/mol; in data set [2] it was 2.94 ± 0.043 kcal/mol; in data set [3] it was 3.12 ± 0.042 kcal/mol.

Take “SAGGSAETTKDPNKPVETISTPGTLIKITKYPDSYNATIEPLDENGNVTGSESGPIKSIEEVLRQLSAGGSA [r15_288_JUSTAS]”: the “folding stability dG unfold” value in data set [1] was -0.615 ± 0.16 kcal/mol; in data set [2], 0.597 ± 0.067 kcal/mol; in data set [3], 0.216 ± 0.12 kcal/mol.

“SAGGSAETVVVRIEVRDPETGETLELEIEVRRDMTEEELRELAEELARALKEAGYEVRVEVVRLPPSAGGSA [r15_268_TrROS_Hall]”: the “folding stability dG unfold” value in data set [1] came out at 3.11 ± 0.073 kcal/mol; in data set [2], 2.26 ± 0.11 kcal/mol; in data set [3] it was 2.61 ± 0.091 kcal/mol.

Take “SAGGSAEVERFEIPVTSEEELEKLIEELKKAPGVLSVEKTPDGTLVVTVPKGKSDIVEEAAKKAGLSAGGSA [r15_834_JUSTAS]”: the figures for the “folding stability dG unfold” value in data set [1], in data set [2] and in data set [3] were 2.7 ± 0.12 kcal/mol, 3.17 ± 0.11 kcal/mol and 2.97 ± 0.09 kcal/mol, respectively.

As for “SAGGSAEVTFTLPDGTPFSGEVTRFPDSIRVTLTVGSTPASFEMDPSTNLITGNIPGRPLTVSLGLSAGGSA [r2_194_JUSTAS]”, the “folding stability dG unfold” value stood at 1.17 ± 0.03 kcal/mol in data set [1], 1.11 ± 0.1 kcal/mol in data set [2] and 1.18 ± 0.053 kcal/mol in data set [3].

Turning to “SAGGSAEVTITVEYDEETGVLKITITVPPGVTVEEIAEALKKLVPDVKVEKNEDGTITVYVKLPEKSAGGSA [r15_1057_TrROS_Hall]”, the “folding stability dG unfold” value is 2.44 ± 0.16 kcal/mol in data set [1], 4.36 ± 0.16 kcal/mol in data set [2] and 4.07 ± 0.33 kcal/mol in data set [3].

As to “SAGGSAFKIKIPEDLRGAPPGGKIEIEFPNGVRAEIEYKDGEWVIEVKHYGPNGKPVEEHEFRIKVSAGGSA [r15_558_TrROS]”, the results for the “folding stability dG unfold” value in data set [1], in data set [2] and in data set [3] were 1.47 ± 0.046 kcal/mol, 0.94 ± 0.18 kcal/mol and 1.28 ± 0.22 kcal/mol, respectively.

In the case of “SAGGSAFPIRIKDDNQKKIMIPFDSPEELEDLLKEPGIDKVDPEPNPDGNQPWFTIDLPNGKIELWSAGGSA [r15_632_TrROS]”, the entries for the “folding stability dG unfold” value in data set [1], in data set [2] and in data set [3] were -1.53 ± 0.5 kcal/mol, -1.04 ± 0.66 kcal/mol and -0.826 ± 0.38 kcal/mol, respectively.

Take “SAGGSAGEAYSVVKASWNPETGTLNIVVKNPSTGEQKVYNIKPGNPVIDFPEGSVIESIEINPSPYSAGGSA [r15_959_TrMRF]”: the results for the “folding stability dG unfold” value in data set [1], in data set [2] and in data set [3] were 0.237 ± 0.095 kcal/mol, 1.03 ± 0.2 kcal/mol and 0.835 ± 0.11 kcal/mol, respectively.

In the case of “SAGGSAGGAIGTIDYNGKPLRLSVYLPDNPRVFEYPVDGDPLVFAAELNRETGFDVTDVVVVGGSAGGSAGG [r6_762_TrMRF]”, the figures for the “folding stability dG unfold” value in data set [1], in data set [2] and in data set [3] were 0.291 ± 0.098 kcal/mol, 0.033 ± 0.18 kcal/mol and 0.132 ± 0.14 kcal/mol, respectively.

The record behind these values is the supplement of paper PMC12764529.
